Test results as given in patent US20130251640A1 (METHODIST HOSPITAL SYSTEM, published 2013).
Non-standard residues stand in square brackets, D forms with d. *: point of attachment. Dnp = O=[N+]([O-])c1ccc(*)c([N+](=O)[O-])c1; Mca = COc1ccc2c(CC(=O)*)cc(=O)oc2c1

T1: Cathepsin E (purchased from Calbiochem, EMD Bioscience)
T1 sequence (P14091 whole entry, species assumed, looked up): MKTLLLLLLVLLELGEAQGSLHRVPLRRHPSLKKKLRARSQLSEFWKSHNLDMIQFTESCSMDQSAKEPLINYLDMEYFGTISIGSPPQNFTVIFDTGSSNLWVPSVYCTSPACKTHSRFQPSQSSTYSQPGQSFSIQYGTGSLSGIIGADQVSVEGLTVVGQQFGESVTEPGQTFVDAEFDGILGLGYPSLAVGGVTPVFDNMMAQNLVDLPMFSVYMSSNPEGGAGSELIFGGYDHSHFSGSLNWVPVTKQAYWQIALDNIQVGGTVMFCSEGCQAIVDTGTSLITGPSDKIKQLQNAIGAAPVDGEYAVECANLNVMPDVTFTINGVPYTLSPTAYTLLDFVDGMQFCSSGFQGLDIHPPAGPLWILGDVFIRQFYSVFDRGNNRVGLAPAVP


What was measured:
Assay in all cases: cell-based or functional assay
[1] = target: T1, Cathepsin E (purchased from Calbiochem, …)
[2] = target: Cathepsin S (purchased from Calbiochem, EMD Bioscience)
[3] = target: Cathepsin B (purchased from Calbiochem, EMD Bioscience)

| net fluorescence signal ratio (Cath E/Cath D) at 10 minutes [1] [fold] | net fluorescence signal ratio (Cath E/Cath D) at 45 minutes [1] [fold] | net fluorescence signal ratio (Cath E/Cath D) at the initial time point [1] [fold] | net fluorescence signal ratio (Cath E/Cath D) immediately after incubation [1] [fold] | Binder | further results |
| --- | --- | --- | --- | --- | --- |
| 4 | 2.3 | 12 |  | Mca-AGFSLGPK(Dnp)[dR]-NH2 (SMILES COc1ccc2c(CC(=O)N[C@@H](C)C(=O)NCC(=O)N[C@@H](Cc3ccccc3)C(=O)N[C@@H](CO)C(=O)N[C@@H](CC(C)C)C(=O)NCC(=O)N3CCC[C@H]3C(=O)N[C@@H](CCCCNc3ccc([N+](=O)[O-])cc3[N+](=O)[O-])C(=O)N[C@H](CCCNC(=N)N)C(N)=O)cc(=O)oc2c1) [substrate d, Mca-Ala-Gly-Phe-Ser-Leu**Gly-Pro-Lys(Dnp)-DArg-CONH2] |  |
|  |  |  | 1.5 | Mca-GPILFFRLK(Dnp)[dR]-NH2 (SMILES CC[C@H](C)[C@H](NC(=O)[C@@H]1CCCN1C(=O)CNC(=O)Cc1cc(=O)oc2cc(OC)ccc12)C(=O)N[C@@H](CC(C)C)C(=O)N[C@@H](Cc1ccccc1)C(=O)N[C@@H](Cc1ccccc1)C(=O)N[C@@H](CCCNC(=N)N)C(=O)N[C@@H](CC(C)C)C(=O)N[C@@H](CCCCNc1ccc([N+](=O)[O-])cc1[N+](=O)[O-])C(=O)N[C@H](CCCNC(=N)N)C(N)=O) [substrate c, Mca-Gly-Pro-Ile-Leu-Phe**Phe-Arg-Leu-Lys(Dnp)-DArg-CONH2] |  |
|  |  |  |  | Mca-AGFSLPAK(Dnp)[dR]-NH2 (SMILES COc1ccc2c(CC(=O)N[C@@H](C)C(=O)NCC(=O)N[C@@H](Cc3ccccc3)C(=O)N[C@@H](CO)C(=O)N[C@@H](CC(C)C)C(=O)N3CCC[C@H]3C(=O)N[C@@H](C)C(=O)N[C@@H](CCCCNc3ccc([N+](=O)[O-])cc3[N+](=O)[O-])C(=O)N[C@H](CCCNC(=N)N)C(N)=O)cc(=O)oc2c1) [substrate e, Mca-Ala-Gly-Phe-Ser-Leu**Pro-Ala-Lys(Dnp)-D-Arg-CONH2] | fluorescence signal increase relative to that observed with Cath E, 90 minutes [2]: < 15%; net fluorescence signal ratio (Cath E/Cath D) at 1 minute [1]: 265 fold; fluorescence signal increase relative to that observed with Cath E, 90 minutes [3]: < 15% |
|  |  |  | 1.6 | Mca-GPILFFRLGK(Dnp)[dR]-NH2 (SMILES CC[C@H](C)[C@H](NC(=O)[C@@H]1CCCN1C(=O)CNC(=O)Cc1cc(=O)oc2cc(OC)ccc12)C(=O)N[C@@H](CC(C)C)C(=O)N[C@@H](Cc1ccccc1)C(=O)N[C@@H](Cc1ccccc1)C(=O)N[C@@H](CCCNC(=N)N)C(=O)N[C@@H](CC(C)C)C(=O)NCC(=O)N[C@@H](CCCCNc1ccc([N+](=O)[O-])cc1[N+](=O)[O-])C(=O)N[C@H](CCCNC(=N)N)C(N)=O) [substrate b, Mca-Gly-Pro-Ile-Leu-Phe**Phe-Arg-Leu-Gly-Lys(Dnp)-DArg-CONH2] |  |
| 4.5 | 1.6 | 17.9 |  | Mca-GSPAFLAK(Dnp)[dR]-NH2 (SMILES COc1ccc2c(CC(=O)NCC(=O)N[C@@H](CO)C(=O)N3CCC[C@H]3C(=O)N[C@@H](C)C(=O)N[C@@H](Cc3ccccc3)C(=O)N[C@@H](CC(C)C)C(=O)N[C@@H](C)C(=O)N[C@@H](CCCCNc3ccc([N+](=O)[O-])cc3[N+](=O)[O-])C(=O)N[C@H](CCCNC(=N)N)C(N)=O)cc(=O)oc2c1) [substrate a, Mca-Gly-Ser-Pro-Ala-Phe**Leu-Ala-Lys(Dnp)-DArg-CONH2] |  |
